Source: patent publication US20250154263A1 (FEINSTEIN INSTITUTES FOR MEDICAL RESEARCH, published 2025)

T1: CLECL1 on the cell surface (CLECL1+ CLL PF cells) (human, UniProt Q8IZS7 1-167)
T1 construct: Native CLECL1 on patient CLL cells or the MEC1 CLL line; also called DCAL-1
T1 sequence: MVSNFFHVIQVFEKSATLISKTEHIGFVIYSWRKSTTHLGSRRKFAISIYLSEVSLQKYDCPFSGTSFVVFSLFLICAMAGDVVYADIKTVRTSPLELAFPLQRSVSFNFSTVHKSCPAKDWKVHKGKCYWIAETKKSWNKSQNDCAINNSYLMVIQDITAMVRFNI


Biological target: T1, CLECL1 on the cell surface (CLECL1+ CLL …)
Test: flow cytometry (FIG. 8E; cells not named in the legend)

| Binder | binding result |
| --- | --- |
| mAb 17.2 (antibody, mouse IgG1, V domains shown, also called 17.2.3; hybridoma #17) VH: EVQLQQSGAELVRSGASVKLSCTTSGFNIKDFYIHWVRQRPEQGLEWIGWIDPKNDDTEYAPRFQGKATVTADTSSNTAYLHLSGLTSEDTAVYYCNGRYPTMDFWGQGTSVT VL: EIVLTQSPITMTTSPGEKITITCSASSSISSHYLHWYQQKPGFSPKLLIYRASNLASGVPTRFSGSGSGTSYSLTIDTMEAEDVATYFCQQGSSLPLTFGAGTKLELK | binds |
| mAb 243.6 (antibody, mouse IgG1, V domains shown, also called 243.6.1) VH: EVQLQQSGTVLVRSGASVKLSCTASGFNIKEYYIHWVKQRPEQGLEWIAWIDLENGESEYAPKFQGKATLTADTSSNTAYLQLSGLTSEDTAVYYCNAFHGNYAHNYAIDYWGQGTSVTVSQ VL: DIVMSQSPSSLAVSAGEKVTMTCKSSQSLLNSRTRKNYLAWYQQKPGQSPKLLIYWASTRKSGVPDRFTGSGSGTDFTLTISSVQAEDLAVYYCKQSYNLRTFGGGTKLEIK | binds |
